This note sets out measurements from PMC10681723, “The N-terminus of Spt16 anchors FACT to MCM2–7 for parental histone recycling” (Nucleic Acids Research, 2023).

The target of this test is Recombinant Saccharomyces cerevisiae histone H3/H4 (Saccharomyces cerevisiae, UniProt P61830 1-136; P02309 1-103). Put plainly: pull-down; 2 μg GST-Mcm2HBD on Glutathione Sepharose; 0.1, 0.2 and 0.4 μg histone H3/H4 in 0.4 ml buffer A150 (25 mM Tris pH 7.5, 1 mM EDTA, 0.01% NP-40, 150 mM NaCl), 6 h, 4°C; CBB staining. Particulars: both partners purified.

B1: GST-tagged Mcm2HBD (residues 1–200) (domain or fragment, yeast, UniProt P29469 1-200, looked up)
chain: MSDNRRRRREEDDSDSENELPPSSPQQHFRGGMNPVSSPIGSPDMINPEGDDNEVDDVPDIDEVEEQMNEVDLMDDNMYEDYAADHNRDRYDPDQVDDREQQELSLSERRRIDAQLNERDRLLRNVAYIDDEDEEQEGAAQLDEMGLPVQRRRRRRQYEDLENSDDDLLSDMDIDPLREELTLESLSNVKANSYSEWITQ
notes: also called GST-Mcm2HBD; source: E. coli BL21(DE3) CodonPlus RIL, pGEX4T-1, purified (Glutathione Sepharose)
In the case of B1, the binding result is reported as “binds”.
